Measurements: patent US20220204611A1 (Amgen, published 2022)

Tests used:
[1] = molecular target: T1, human TREM2 on cells (human, UniProt Q9NZC2 19-230); assay: cell-based or functional assay
T1 sequence: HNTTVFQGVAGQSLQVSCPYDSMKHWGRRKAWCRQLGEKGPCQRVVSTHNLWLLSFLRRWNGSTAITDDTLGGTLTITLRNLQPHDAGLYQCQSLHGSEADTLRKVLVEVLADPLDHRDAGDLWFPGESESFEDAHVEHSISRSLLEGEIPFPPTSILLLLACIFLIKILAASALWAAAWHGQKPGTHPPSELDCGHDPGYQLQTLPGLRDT

[2] = molecular target: T1, human TREM2 on cells; assay: cell-based or functional assay; remark: listed apart in the source
[3] = molecular target: T2, recombinant soluble human TREM2 protein (human TREM2 ECD-FlagHis) (human, UniProt Q9NZC2 19-174); assay: Octet BLI binning; competitor: load Ab 4C5
T2 sequence: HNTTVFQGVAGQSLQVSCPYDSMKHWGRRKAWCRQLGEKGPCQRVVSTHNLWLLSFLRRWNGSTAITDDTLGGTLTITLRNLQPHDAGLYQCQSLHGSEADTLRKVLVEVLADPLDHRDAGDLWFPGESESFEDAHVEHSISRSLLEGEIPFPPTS
Protocol: (§1) Each of sixteen different anti-TREM2 antibodies produced from hybridomas were quantitated and loaded onto one of the anti-human Fc sensors at 5 μg/mL for 2 minutes (“Load Antibody”). The sensor was then blocked with 100 μg/mL of an irrelevant human IgG2 antibody for 5 minutes. […] Next, each of the sixteen different anti-TREM2 antibodies (“Sandwich Antibody”) was added to the sensor at 5 μg/mL and allowed to bind for 5 minutes. All assay buffers contained 10 mM Tris (pH 7.6), 0.1% Triton X-100, 150 mM NaCl, 1 mM CaCl₂, and 1 mg/mL BSA. The assay was conducted at 25° C. Experimental kinetic results were fit to a 1:1 binding model.
(§2) However, if addition of the sandwich antibody produces a binding event, then the sandwich antibody binds to a different epitope on human TREM2 than the load antibody and the two antibodies are categorized into different epitope bins.

[4] = molecular target: T2, recombinant soluble human TREM2 protein …; assay: Octet BLI binning; competitor: load Ab 10E3
Protocol: as §1, §2

[5] = molecular target: T2, recombinant soluble human TREM2 protein …; assay: Octet BLI binning; competitor: load Ab 24G6
Protocol: as §1, §2

[6] = molecular target: T2, recombinant soluble human TREM2 protein …; assay: Octet BLI binning; competitor: load Ab 26F2
Protocol: as §1, §2

[7] = molecular target: T2, recombinant soluble human TREM2 protein …; assay: Octet BLI binning; competitor: load Ab 32E3
Protocol: as §1, §2

[8] = molecular target: T2, recombinant soluble human TREM2 protein …; assay: Octet BLI binning; competitor: load Ab 4G10
Protocol: as §1, §2

[9] = molecular target: T2, recombinant soluble human TREM2 protein …; assay: Octet BLI binning; competitor: load Ab 25F12
Protocol: as §1, §2

[10] = molecular target: T2, recombinant soluble human TREM2 protein …; assay: Octet BLI, antibody on anti-human Fc sensor, 25 C
Protocol: (§3) To quantitate the binding affinity of agonist antibodies for human TREM2, association and dissociation rate constants as well as the equilibrium dissociation constant were determined using anti-human Fc (Kinetic) sensors on an Octet® HTX instrument (Pall ForteBio). Agonist anti-TREM2 antibodies were made up in DMEM null media, 250 μL at 10 μg/mL. The, 250 uL of assay buffer (10 mM Tris (pH 7.6), 0.1% Triton X-100, 150 mM NaCl, 1mM CaCl₂, and 1 mg/mL BSA) was added to the antibody solutions to a final volume of 500 μL and final antibody concentration of 5 μg/mL. The anti-human Fc sensor was pre-incubated in 200 μL of the assay buffer for a minimum of 10 minutes. The sensor was then regenerated for 5 seconds in 10 mM glycine pH 1.5. Test agonist anti-TREM2 antibodies were loaded onto the sensor for 2 minutes, and baseline measurements were taken for 2 minutes. […] The recombinant TREM2 proteins were allowed to associate with the antibody-loaded sensor for 10 minutes, and then dissociation was measured for 10 minutes. The assay was conducted at 25° C. Experimental kinetic results were globally fit to a 1:1 binding model in order to determine the association and dissociation rate constants as well as the equilibrium dissociation constant.

[11] = molecular target: T3, recombinant soluble cynomolgus TREM2 protein (cynomolgus TREM2 extracellular domain coupled to a Flag/His tag) (cynomolgus, UniProt A0A2K5UY34 49-204); assay: Octet BLI, antibody on anti-human Fc sensor, 25 C
T3 construct: extracellular domain; also called Cyno TREM2
T3 sequence: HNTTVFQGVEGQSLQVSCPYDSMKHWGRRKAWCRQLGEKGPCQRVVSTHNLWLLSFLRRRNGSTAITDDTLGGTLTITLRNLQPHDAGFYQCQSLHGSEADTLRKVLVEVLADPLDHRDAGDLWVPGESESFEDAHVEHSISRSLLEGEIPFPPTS
Protocol: as §3

[12] = molecular target: T4, soluble human TREM2 protein (TREM2 ECD-huIgG1 Fc fusion protein) (human, UniProt Q9NZC2 19-174, biotinylated); assay: ELISA, hybridoma supernatant on captured biotinylated TREM2 ECD-Fc
T4 construct: also called biotinylated soluble human TREM2 protein
T4 sequence: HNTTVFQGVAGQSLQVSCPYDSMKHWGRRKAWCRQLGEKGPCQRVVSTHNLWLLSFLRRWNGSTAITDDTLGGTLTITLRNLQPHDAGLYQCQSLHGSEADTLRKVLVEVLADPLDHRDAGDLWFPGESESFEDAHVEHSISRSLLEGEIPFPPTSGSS

pSyk EC50 [1]: 0.47 nM
Emax (% maximum activation compared to RnD antibody) [2]: 236%
pSyk EC50, differentiated THP-1 cells [2]: 0.579 nM
sandwich binding signal [3]: -0.018
sandwich binding signal [4]: -0.019
sandwich binding signal [5]: 0.184
sandwich binding signal [6]: 0.18
sandwich binding signal [7]: -0.029
sandwich binding signal [8]: -0.026
sandwich binding signal [9]: 0.199
Kd [10]: 3.3 nM
Kd [11]: 1.7 nM
OD 450 [12]: 3.17 OD450
B1: 4G10 (antibody, human IgG2, V domains shown)
VH: EVQLVQSGAEVKKPGESLKISCKGSGYSFPSYWIAWVRQMPGKGLEWMGIIYPGDSDTRYSPSFQGQVTISADKSISTAFLKWSSLKASDTAMYFCARQGIEVTGTGGLDVWGQGTTVTVSS
VL: DIQMTQSPSSLSASVGDRVTITCRASQGIRNDLGWYQQKPGNAPKRLIYAASSLPSGVPSRFSGSGSGPEFTLTISSLQPEDFATYYCLQHNSYPWTFGQGTKVEIT
notes: human IgG2 from hybridoma
